Experimental data: PMC3380378

B1: 3-deoxy-D-manno-octulosonate cytidylyltransferase (KdsB, CMP-KDO synthetase) (Escherichia coli K-12) (protein)
chain: MSFVVIIPARYASTRLPGKPLVDINGKPMIVHVLERARESGAERIIVATDHEDVARAVEAAGGEVCMTRADHQSGTERLAEVVEKCAFSDDTVIVNVQGDEPMIPATIIRQVADNLAQRQVGMATLAVPIHNAEEAFNPNAVKVVLDAEGYALYFSRATIPWDRDRFAEGLETVGDNFLRHLGIYGYRAGFIRRYVNWQPSPLEHIEMLEQLRVLWYGEKIHVAVAQEVPGTGVDTPEDLERVRAEMR

Columns and labels:
Experiment in all cases: purified protein
[1] = test system: O=C(O)C(=O)C[C@@H](O)[C@@H](O)[C@H](O)[C@H](O)COP(=O)(O)O; conditions: Mg2+; pH 10.0
purified protein [2] = substrate: O=C(O)C(=O)C[C@@H](O)[C@@H](O)[C@H](O)[C@H](O)CO; type: biochemical, Escherichia coli; conditions: Mg2+; pH 9.3
purified protein [3] = substrate: Nc1ccn([C@@H]2O[C@H](COP(=O)(O)OP(=O)(O)OP(=O)(O)O)[C@@H](O)[C@H]2O)c(=O)n1; type: biochemical, Escherichia coli; conditions: Mg2+; pH 9.3

| Molecule | Km [1] [µM] | Km (purified protein [2]) [µM] | Km (purified protein [3]) [µM] |
| --- | --- | --- | --- |
| 3-deoxy-D-manno-octulosonic acid 8-phosphate phosphatase (KdsC) (Escherichia coli K-12) | 370 ± 10 |  |  |
| B1 |  | 280 ± 20 | 330 ± 40 |
